# Source: PMC2756588
# B1: unnamed (peptide)
# chain: QQNRPLPQLPNRNNR
# B2: unnamed (peptide)
# chain: GATNNAPTLPKRKNP
# B3: unnamed (peptide)
# chain: PALPSLPPPPLLNVD
# B4: unnamed (peptide)
# chain: VQPTAAPATPPRHIS
# B5: unnamed (peptide)
# chain: VATSTSPKLPPRGKQ
# B6: unnamed (peptide)
# chain: NPLPKEPRLPKRKVA
# Biological target: T1, Boi2, P39969
# T1 sequence (P39969 32-116, looked up): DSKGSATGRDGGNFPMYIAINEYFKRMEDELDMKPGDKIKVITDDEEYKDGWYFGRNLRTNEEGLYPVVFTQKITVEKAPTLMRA
# Assay: SPOT array
# Details: median of control spots 1161
row,Binder,SPOT intensity
1,B1,1
2,B2,58
3,B3,0
4,B4,0
5,B5,1
6,B6,2

# Biological target: T2, Bud14, P27637
# T2 sequence (P27637 247-328, looked up): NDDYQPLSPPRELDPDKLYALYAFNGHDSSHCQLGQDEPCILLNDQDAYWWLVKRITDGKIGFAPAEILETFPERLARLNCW
# Assay: SPOT array
# Details: median of control spots 956
row,Binder,SPOT intensity
1,B1,4
2,B2,0
3,B3,1
4,B4,0
5,B5,0
6,B6,26

# Biological target: T3, Myo5, Q04439
# T3 sequence (Q04439 1072-1160, looked up): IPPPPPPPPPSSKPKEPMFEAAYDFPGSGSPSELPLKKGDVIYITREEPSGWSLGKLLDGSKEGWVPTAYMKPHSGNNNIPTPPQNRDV
# Assay: SPOT array
# Details: median of control spots 471
row,Binder,SPOT intensity
1,B1,0
2,B2,0
3,B3,688
4,B4,0
5,B5,0
6,B6,0

# Biological target: T4, Pin3, Q06449
# T4 sequence (Q06449 53-122, looked up): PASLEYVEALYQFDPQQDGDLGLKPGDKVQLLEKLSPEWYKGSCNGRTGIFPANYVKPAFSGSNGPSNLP
# Assay: SPOT array
# Details: median of control spots 2171
row,Binder,SPOT intensity
1,B1,34
2,B2,0
3,B3,0
4,B4,0
5,B5,15
6,B6,10

# Biological target: T5, Sla1-2, P32790
# T5 sequence (P32790 60-140, looked up): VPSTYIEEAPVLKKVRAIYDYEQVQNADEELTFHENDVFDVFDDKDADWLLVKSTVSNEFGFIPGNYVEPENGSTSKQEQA
# Assay: SPOT array
# Details: median of control spots 712
row,Binder,SPOT intensity
1,B1,0
2,B2,92
3,B3,0
4,B4,0
5,B5,0
6,B6,2

# Biological target: T6, Cdc25, P04821
# T6 sequence (P04821 50-136, looked up): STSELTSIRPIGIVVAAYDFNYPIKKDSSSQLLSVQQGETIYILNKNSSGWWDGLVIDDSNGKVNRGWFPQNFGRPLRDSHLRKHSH
# Assay: SPOT array
# Details: median of control spots 969
row,Binder,SPOT intensity
1,B1,2
2,B2,1
3,B3,0
4,B4,2
5,B5,0
6,B6,22

# Biological target: T7, Lsb1, P53281
# T7 sequence (P53281 45-122, looked up): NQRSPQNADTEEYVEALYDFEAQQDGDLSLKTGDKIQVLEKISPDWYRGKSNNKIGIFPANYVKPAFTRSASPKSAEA
# Assay: SPOT array
# Details: median of control spots 388
row,Binder,SPOT intensity
1,B1,176
2,B2,64
3,B3,0
4,B4,45
5,B5,561
6,B6,19

# Biological target: T8, Cyk3, Q07533
# T8 sequence (Q07533 1-83, looked up): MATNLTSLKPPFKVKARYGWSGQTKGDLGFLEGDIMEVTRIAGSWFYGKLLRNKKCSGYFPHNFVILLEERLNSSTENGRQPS
# Assay: SPOT array
# Details: median of control spots 1451
row,Binder,SPOT intensity
1,B1,0
2,B2,0
3,B3,0
4,B4,0
5,B5,1
6,B6,4

# Biological target: T9, Lsb3, P43603
# T9 sequence (P43603 385-451, looked up): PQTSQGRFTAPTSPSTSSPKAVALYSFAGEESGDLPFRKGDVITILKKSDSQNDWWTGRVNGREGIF
# Assay: SPOT array
# Details: median of control spots 406
row,Binder,SPOT intensity
1,B1,484
2,B2,425
3,B3,0
4,B4,251
5,B5,695
6,B6,282

# Biological target: T10, Bzz1-1, P38822
# T10 sequence (P38822 478-572, looked up): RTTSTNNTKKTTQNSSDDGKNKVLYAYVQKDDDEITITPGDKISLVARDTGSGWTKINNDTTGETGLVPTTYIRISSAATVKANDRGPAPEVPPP
# Assay: SPOT array
# Details: median of control spots 4446
row,Binder,SPOT intensity
1,B1,4
2,B2,0
3,B3,2
4,B4,0
5,B5,2
6,B6,6

# Biological target: T11, Sla1-3, P32790
# T11 sequence (P32790 344-424, looked up): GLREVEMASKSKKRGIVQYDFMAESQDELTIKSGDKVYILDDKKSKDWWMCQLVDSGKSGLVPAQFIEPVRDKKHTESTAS
# Assay: SPOT array
# Details: median of control spots 5475
row,Binder,SPOT intensity
1,B1,10
2,B2,1
3,B3,0
4,B4,5
5,B5,13
6,B6,45

# Biological target: Bem1-1, P29366
# Sequence (P29366 55-141): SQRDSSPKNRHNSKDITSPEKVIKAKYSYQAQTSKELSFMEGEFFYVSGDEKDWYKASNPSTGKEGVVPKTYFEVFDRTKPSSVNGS
# Assay: SPOT array
# Details: median of control spots 4282
row,Binder,SPOT intensity
1,B1,3
2,B2,0
3,B3,0
4,B4,2
5,B5,6
6,B6,0

# Biological target: T12, Hse1, P38753
# T12 sequence (P38753 208-285, looked up): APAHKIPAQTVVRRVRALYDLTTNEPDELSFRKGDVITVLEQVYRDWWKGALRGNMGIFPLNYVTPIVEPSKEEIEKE
# Assay: SPOT array
# Details: median of control spots 1727
row,Binder,SPOT intensity
1,B1,23
2,B2,1
3,B3,0
4,B4,0
5,B5,0
6,B6,191

# Biological target: T13, Fus1, P11710
# T13 sequence (P11710 432-512, looked up): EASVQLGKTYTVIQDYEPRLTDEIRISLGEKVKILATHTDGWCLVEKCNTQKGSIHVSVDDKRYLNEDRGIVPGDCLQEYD
# Assay: SPOT array
# Details: median of control spots 1200
row,Binder,SPOT intensity
1,B1,2
2,B2,2
3,B3,0
4,B4,13
5,B5,0
6,B6,2

# Biological target: T14, Abp1, P15891
# T14 sequence (P15891 535-592, looked up): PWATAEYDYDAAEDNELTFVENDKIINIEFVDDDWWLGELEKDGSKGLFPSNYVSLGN
# Assay: SPOT array
# Details: median of control spots 935
row,Binder,SPOT intensity
1,B1,228
2,B2,36
3,B3,0
4,B4,0
5,B5,23
6,B6,131

# Biological target: T15, Bbc1, P47068
# T15 sequence (P47068 1-78, looked up): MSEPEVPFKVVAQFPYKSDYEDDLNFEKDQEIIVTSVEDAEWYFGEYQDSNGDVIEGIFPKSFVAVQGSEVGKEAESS
# Assay: SPOT array
# Details: median of control spots 796
row,Binder,SPOT intensity
1,B1,40
2,B2,6
3,B3,0
4,B4,2
5,B5,23
6,B6,221

# Biological target: T16, Bzz1-2, P38822
# T16 sequence (P38822 568-633, looked up): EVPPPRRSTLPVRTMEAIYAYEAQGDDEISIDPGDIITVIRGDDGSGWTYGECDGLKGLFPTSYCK
# Assay: SPOT array
# Details: median of control spots 4538
row,Binder,SPOT intensity
1,B1,0
2,B2,0
3,B3,0
4,B4,0
5,B5,0
6,B6,29

# Biological target: GST
# Assay: SPOT array
# Details: median of control spots 978
row,Binder,SPOT intensity
1,B1,0
2,B2,0
3,B3,0
4,B4,0
5,B5,0
6,B6,2

# Biological target: T17, Nbp2, Q12163
# T17 sequence (Q12163 103-180, looked up): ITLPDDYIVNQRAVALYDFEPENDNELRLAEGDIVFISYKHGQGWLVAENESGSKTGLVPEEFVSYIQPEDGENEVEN
# Assay: SPOT array
# Details: median of control spots 357
row,Binder,SPOT intensity
1,B1,0
2,B2,0
3,B3,0
4,B4,0
5,B5,0
6,B6,0

# Biological target: T18, Lsb4, P32793
# T18 sequence (P32793 402-468, looked up): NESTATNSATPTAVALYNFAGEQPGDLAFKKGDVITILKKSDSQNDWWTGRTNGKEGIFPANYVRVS
# Assay: SPOT array
# Details: median of control spots 397
row,Binder,SPOT intensity
1,B1,484
2,B2,570
3,B3,0
4,B4,251
5,B5,275
6,B6,288

# Biological target: T19, Boi1, P38041
# T19 sequence (P38041 1-86, looked up): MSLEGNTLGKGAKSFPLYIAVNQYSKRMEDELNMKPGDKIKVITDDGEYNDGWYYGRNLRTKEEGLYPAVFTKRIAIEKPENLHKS
# Assay: SPOT array
# Details: median of control spots 1162
row,Binder,SPOT intensity
1,B1,1
2,B2,12
3,B3,0
4,B4,0
5,B5,0
6,B6,4

# Biological target: Myo3, P36006
# Assay: SPOT array
# Details: median of control spots 468
row,Binder,SPOT intensity
1,B1,0
2,B2,0
3,B3,598
4,B4,0
5,B5,0
6,B6,7

# Biological target: T20, Pex13, P80667
# T20 sequence (P80667 295-386, looked up): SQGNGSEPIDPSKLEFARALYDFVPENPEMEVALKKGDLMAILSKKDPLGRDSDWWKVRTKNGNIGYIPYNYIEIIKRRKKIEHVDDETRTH
# Assay: SPOT array
# Details: median of control spots 1341
row,Binder,SPOT intensity
1,B1,589
2,B2,27
3,B3,2
4,B4,0
5,B5,87
6,B6,16

# Biological target: T21, Hof1, Q05080
# T21 sequence (Q05080 590-669, looked up): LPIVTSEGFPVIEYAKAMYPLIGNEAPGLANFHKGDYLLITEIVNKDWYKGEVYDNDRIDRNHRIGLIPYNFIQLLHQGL
# Assay: SPOT array
# Details: median of control spots 4086
row,Binder,SPOT intensity
1,B1,112
2,B2,0
3,B3,6720
4,B4,0
5,B5,2
6,B6,5

# Biological target: Bem1-2, P29366
# Sequence (P29366 139-227): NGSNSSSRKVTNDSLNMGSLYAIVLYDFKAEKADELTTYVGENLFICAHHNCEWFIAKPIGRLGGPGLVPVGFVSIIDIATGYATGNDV
# Assay: SPOT array
# Details: median of control spots 4347
row,Binder,SPOT intensity
1,B1,1
2,B2,9
3,B3,0
4,B4,0
5,B5,0
6,B6,1

# Biological target: Sho1, P40073
# Sequence (P40073 287-367): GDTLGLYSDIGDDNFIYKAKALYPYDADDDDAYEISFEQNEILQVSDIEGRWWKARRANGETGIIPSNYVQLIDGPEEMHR
# Assay: SPOT array
# Details: median of control spots 1148
row,Binder,SPOT intensity
1,B1,1600
2,B2,2
3,B3,83
4,B4,0
5,B5,1
6,B6,107

# Biological target: Rvs167, P39743
# Sequence (P39743 419-482): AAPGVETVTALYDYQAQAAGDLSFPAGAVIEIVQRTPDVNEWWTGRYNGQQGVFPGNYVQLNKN
# Assay: SPOT array
# Details: median of control spots 2707
row,Binder,SPOT intensity
1,B1,1310
2,B2,2550
3,B3,0
4,B4,12
5,B5,4100
6,B6,200
